The text below walks through data of the Immune Epitope Database (IEDB).

Usually Kd stands for the equilibrium constant for the complex coming apart.

Assay [1] addresses HLA-B*08:01. As to the kind of experiment: IEDB peptide-MHC binding, purified MHC/competitive/radioactivity; filed as Kd, often an IC50 or EC50 that approximates it; ≥ and ≤ were set here for values at or beyond the usual limits of such assays.
The target in assay [2] is HLA-A*01:01. As to the kind of experiment: IEDB peptide-MHC binding, purified MHC/direct/fluorescence; filed as Kd, often an IC50 or EC50 that approximates it; ≥ and ≤ were set here for values at or beyond the usual limits of such assays.
Assay [3] addresses HLA-A*02:01. Described as above.
The target in assay [4] is HLA-A*03:01. The description is as above.
The target of assay [5] is HLA-A*26:01. Described as above.
The target of assay [6] is HLA-A*69:01. Described as above.
Assay [7] addresses HLA-B*07:02. Described as above.
For assay [8], the target named is HLA-B*08:01. Described as above.
The target of assay [9] is HLA-B*15:01. The assay is described as above.
Assay [10] deals with HLA-B*27:05. Described as above.
In assay [11] the target is HLA-B*40:01. The description is as above.
Assay [12] addresses HLA-B*58:01. The assay is described as above.
The target in assay [13] is HLA-A*02:01. As to the kind of experiment: IEDB peptide-MHC binding, purified MHC/competitive/radioactivity; filed as Kd, often an IC50 or EC50 that approximates it; ≥ and ≤ were set here for values at or beyond the usual limits of such assays.
Assay [14] deals with HLA-A*02:02. The assay is described as above.
The target of assay [15] is HLA-A*02:03. The description is as above.
Assay [16] deals with HLA-A*02:06. Described as above.
The target of assay [17] is HLA-A*68:02. Described as above. The note with it: source organism: Trypanosoma cruzi.
Assay [18] addresses HLA-A*11:01. As to the kind of experiment: IEDB peptide-MHC binding, purified MHC/direct/fluorescence; filed as Kd, often an IC50 or EC50 that approximates it; ≥ and ≤ were set here for values at or beyond the usual limits of such assays. The conditions noted are these: source organism: Edwardsiella tarda.
In assay [19] the target is HLA-A*31:01. The description is as above. The note with it: source organism: Edwardsiella tarda.
Assay [20] concerns the target HLA-B*40:01. As to the kind of experiment: IEDB peptide-MHC binding, purified MHC/competitive/radioactivity; filed as Kd, often an IC50 or EC50 that approximates it; ≥ and ≤ were set here for values at or beyond the usual limits of such assays.
Assay [21] addresses HLA-B*46:01. As to the kind of experiment: IEDB peptide-MHC binding, purified MHC/direct/fluorescence; filed as Kd, often an IC50 or EC50 that approximates it; ≥ and ≤ were set here for values at or beyond the usual limits of such assays.
Assay [22] concerns the target HLA-A*23:01. As to the kind of experiment: IEDB peptide-MHC binding, purified MHC/competitive/radioactivity; filed as Kd, often an IC50 or EC50 that approximates it; ≥ and ≤ were set here for values at or beyond the usual limits of such assays. The note with it: source organism: Dengue virus 1 Brazil/97-11/1997.
Assay [23] has as its target HLA-A*24:02. The description is as above. The conditions noted are these: source organism: Dengue virus 1 Brazil/97-11/1997.
Assay [24] has as its target HLA-B*44:02. Described as above. The conditions noted are these: source organism: Dengue virus 2 Jamaica/1409/1983.
Assay [25] deals with HLA-B*44:03. The description is as above.
The target of assay [26] is HLA-B*15:01. Described as above. The note with it: source organism: Vaccinia virus WR.
In assay [27] the target is HLA-A*02:01. As to the kind of experiment: IEDB peptide-MHC binding, purified MHC/competitive/fluorescence; filed as Kd, often an IC50 or EC50 that approximates it; ≥ and ≤ were set here for values at or beyond the usual limits of such assays. The conditions noted are these: source organism: Escherichia coli.
In assay [28] the target is HLA-A*26:01. The description is as above. The note with it: source organism: Escherichia coli.
Assay [29] has as its target HLA-B*07:02. As to the kind of experiment: IEDB peptide-MHC binding, purified MHC/competitive/radioactivity; filed as Kd, often an IC50 or EC50 that approximates it; ≥ and ≤ were set here for values at or beyond the usual limits of such assays. The conditions noted are these: source organism: Dengue virus 2 Jamaica/1409/1983.
Assay [30] deals with HLA-B*51:01. The description is as above. The conditions noted are these: source organism: Dengue virus 2 Jamaica/1409/1983.
Assay [31] has as its target HLA-B*53:01. The assay is described as above. The conditions noted are these: source organism: Dengue virus 2 Jamaica/1409/1983.
Assay [32] addresses HLA-A*03:01. The assay is described as above. The note with it: source organism: Dengue virus 2 Jamaica/1409/1983.
Assay [33] deals with HLA-A*30:01. The assay is described as above. The note with it: source organism: Dengue virus 2 Jamaica/1409/1983.
[34] abbreviates: source organism: Dengue virus 2 Jamaica/1409/1983.
The mark [35] stands for this setting: source organism: Corynebacterium glutamicum.
Where [36] appears, read: source organism: Trypanosoma cruzi.
[37] abbreviates: source organism: Edwardsiella tarda.
[38] abbreviates: source organism: Dengue virus 1 Brazil/97-11/1997.
Where [39] appears, read: source organism: Dengue virus 3 Martinique/1243/1999.
Setting [40] is: source organism: Vaccinia virus WR.
The mark [41] stands for this setting: source organism: Mammarenavirus lassaense.
The mark [42] stands for this setting: source organism: Dengue virus 4 Philippines/H241/1956.

Turning to LLVLCVTQVL, the Kd in [1] (source organism: Dengue virus 2 Peru/IQT2913/1996) stood at 12900 nM.

In the case of VQQLTKRFSL, the Kd in assay [1] (setting [34]) was determined as 27.8 nM.

Turning to ATFSRPGSL, the Kd was no less than 20000 nM in assay [2] (setting [35]); no less than 20000 nM in assay [3] (setting [35]); no less than 20000 nM in assay [4] (setting [35]); no less than 20000 nM in [5] (setting [35]); no less than 20000 nM in assay [6] (setting [35]); 658 nM in assay [7] (setting [35]). For the same sequence, the Kd was 13400 nM in assay [8] (setting [35]); 3290 nM in assay [9] (setting [35]); no less than 20000 nM in assay [10] (setting [35]); no less than 20000 nM in assay [11] (setting [35]); no less than 20000 nM in assay [12] (setting [35]).

On to LMYFHRRDL, for which the dissociation constant (Kd) in assay [1] (setting [34]) amounted to 61 nM.

On to LLGLWGIAAS, for which the Kd was 2500 nM in assay [13] (setting [36]); 1580 nM in [14] (setting [36]); 680 nM in assay [15] (setting [36]); 9130 nM in assay [16] (setting [36]); no less than 111000 nM in [17].

Take AFGLFWLVW: the Kd in assay [2] (setting [37]), in assay [3] (setting [37]), in [4] (setting [37]), in assay [18], in assay [5] (setting [37]) and in [19] was no less than 20000 nM throughout. Further, the Kd in assay [6] (setting [37]) was no less than 20000 nM; in assay [7] (setting [37]) it was no less than 20000 nM; in assay [8] (setting [37]), no less than 20000 nM; in assay [9] (setting [37]), no less than 20000 nM; in assay [10] (setting [37]), no less than 20000 nM; in assay [11] (source organism: Enterobacter cloacae), 10500 nM. The sequence also had a Kd in assay [12] (setting [37]) of no less than 20000 nM.

Turning to NESDPEGAL, the Kd in [20] (setting [38]) stood at 17 nM.

For IMNRRKRSV, the Kd in assay [1] (setting [38]) amounted to 2.08 nM.

On to AQAVMEMTY, for which the Kd in [21] (source organism: Yellow fever virus) is no less than 20000 nM.

Turning to ESRKTFVEL, the equilibrium dissociation constant (Kd) in [1] (setting [39]) came out at 632 nM.

Consider ELKTRYHSI, for which the Kd in assay [1] (setting [40]) is 983 nM.

Consider LSRYVARL, for which the Kd in assay [13] (source organism: Hepatitis B virus) was no less than 50000 nM.

On to YNRDKFKAF, for which the Kd in assay [1] (setting [40]) turned out to be 20.2 nM.

VFKKRNLTI: the Kd worked out at 198 nM in assay [22], 882 nM in assay [23] and 75.9 nM in assay [1] (setting [38]).

Consider VIQLNRKSY, for which the dissociation constant (Kd) in assay [21] (source organism: West Nile virus) is no less than 20000 nM.

In the case of LLGLWGFAAA, the Kd in [13] (setting [36]) is 69.1 nM; in assay [14] (setting [36]), 28.8 nM; in [15] (setting [36]), 0.552 nM; in [16] (setting [36]), 49.4 nM; in assay [17], no less than 125000 nM.

For the sequence LELTDALAL, the results for the Kd in assay [20] (setting [34]), in assay [24] and in assay [25] (setting [34]) were 2.79 nM, 1700 nM and 1960 nM, respectively.

Consider NGKPKTFAI, for which, in [1] (setting [40]), the Kd was determined as 2110 nM.

As to MNLYSFTIV, the dissociation constant (Kd) in assay [1] (source organism: Vaccinia virus Copenhagen) stood at 1810 nM.

With KQFKQDAKY, the values for the Kd in assay [9] (setting [41]) and in assay [21] (setting [41]) were 173 nM and no less than 20000 nM, respectively.

As to MPPLRFLGE, the Kd in [1] (setting [42]) is 2570 nM.

Consider GLLPLLLLLL, for which the Kd in assay [13] (setting [36]) was 66 nM; in assay [14] (setting [36]) it was 89.6 nM; in [15] (setting [36]), 89.3 nM; in assay [16] (setting [36]), 16.5 nM; in assay [17] it was no less than 28200 nM.

YLLMHLVSL: the Kd in assay [14] (setting [40]) came to 0.175 nM; in assay [15] (setting [40]) it was 1.4 nM; in assay [16] (setting [40]), 0.254 nM; in assay [1] (setting [40]), 1160 nM.

For TEDDLLNEEL, the equilibrium dissociation constant (Kd) in [20] (setting [42]) was 39.8 nM.

With EFINKFLEF, the Kd was found to be 370 nM in assay [1] (setting [40]) and 359 nM in [26].

LEENMDVEI: the Kd in [20] (setting [38]) was 138 nM.

With RILGAVAKV, in assay [13] (source organism: Homo sapiens), the Kd worked out at 91 nM.

With IRQMEGEGVL, the Kd in assay [1] (setting [39]) was determined as 232 nM.

Regarding DLLENLQTY, in assay [5] (source organism: Influenza A virus (A/Saudi Arabia/2581/2001(H1N2))), the Kd is 214 nM.

Regarding SLNFMGYVI, the Kd in assay [13] (source organism: Hepatitis B virus ayw/France/Tiollais/1979) was 1320 nM.

For TMDGILKSI, the dissociation constant Kd in assay [13] (source organism: Lassa virus GA391) is no less than 25000 nM.

In the case of AAGLQDCT, the Kd in [13] (source organism: Hepatitis C virus (isolate 1)) was no less than 50000 nM.

With ELISSAFKV, the figures for the Kd in assay [27] and in assay [28] were 17.6 nM and 4060 nM, respectively.

Turning to QEVVVLGSQE, the Kd stood at 1190 nM in [20] (setting [38]) and 13700 nM in assay [25] (setting [38]).

Take ILRNPGFALL: the Kd in assay [1] (setting [42]) amounted to 8670 nM.

For the sequence MLLVLCAGQL, the Kd in assay [1] (setting [42]) is 822 nM.

As to QPHWIAASI, the values for the equilibrium dissociation constant (Kd) in assay [29], in assay [30] and in assay [31] were 29.1 nM, 477 nM and 29.7 nM, respectively.

As for EEYKRSGIL, in [20] (setting [42]), the Kd was 92.4 nM.

In turn, EIFEQPKAL showed a Kd in assay [5] (source organism: Vibrio cholerae V52) of 2600 nM.

For the sequence MLRTRVGTK, the Kd was found to be 25.6 nM in [32], 333 nM in assay [33] and 1110 nM in assay [1] (setting [34]).

TQLMPFGCLL: in assay [13] (source organism: Homo sapiens), the Kd came to 257 nM.
